Data reported in patent publication US20170044260A1 (Innovent, published 2017).

Columns and labels:
cynoPD-1_Fc = cynoPD-1_Fc (cyno, UniProt B0LAJ3 25-170); test: bio-layer interferometry (ForteBio), monovalent: Fab in solution, cynoPD-1_Fc on sensor tip
human PD-1 on cells [1] = target: T1, human PD-1 on cells (human, UniProt Q15116 25-288); test: flow cytometry blocking: CHO cells with human PD-1, 100 nM antibody, then PD-L2-FITC (competitor); remaining PD-L2-FITC signal
cynoPD-1_Fc (cyno) = cynoPD-1_Fc (cyno) (UniProt B0LAJ3); test: bio-layer interferometry (ForteBio), monovalent: Fab in solution, cynoPD-1_Fc on sensor tip
Chain of cynoPD-1_Fc (cyno) (B0LAJ3 entry or part of it limits assumed): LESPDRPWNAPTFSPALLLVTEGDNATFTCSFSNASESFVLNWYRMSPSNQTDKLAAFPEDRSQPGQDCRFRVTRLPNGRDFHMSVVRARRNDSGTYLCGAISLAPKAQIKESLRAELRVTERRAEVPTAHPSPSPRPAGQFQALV

human PD-1 on cells [2] = target: T1, human PD-1 on cells; test: cell-based or functional assay
human PD-1 on cells [3] = target: T1, human PD-1 on cells; test: cell-based or functional assay; remark: listed apart in the source
human PD-1 on cells [4] = target: T1, human PD-1 on cells; test: flow cytometry on CHO cells with human PD-1, PE-labelled secondary antibody
Procedure: Cells are then washed 3×, and are incubated with a secondary antibody (PE-labelled, at final concentration of 5 μg/ml) in PBS 1% BSA for 30 min on ice (protected from light). Cells are washed 3× and analyzed via flow cytometry. Flow cytometry is performed on an Accuri C6 system (BD Biosciences) and MFIs are calculated on the C6 software. EC50s are calculated on Graphpad software.

[5] = target: T2, human PD-1-Fc (R&D Systems) (human, UniProt Q15116 25-167); test: SPR (Biacore T200), human PD-1-Fc immobilized, antibody as analyte, 37° C.
T2 construct: not shown: Fc part of the bought fusion protein; not described
T2 sequence (Q15116 25-167 limits assumed): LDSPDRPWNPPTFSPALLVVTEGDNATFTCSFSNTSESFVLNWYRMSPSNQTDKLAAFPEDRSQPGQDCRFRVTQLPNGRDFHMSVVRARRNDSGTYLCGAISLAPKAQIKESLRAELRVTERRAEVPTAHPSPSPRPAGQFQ
Procedure: (§1) All sample analytes are run in 3-fold series dilutions from their starting concentration (90 nM), 8 total dilutions with one duplicate at a middle concentration and a zero. The analysis is performed at 37° C. The contact time for each sample is 180 sec at 30 μl/min. The dissociation time: 300 seconds for 5 lower concentrations and 1200 (Fab), or 2400 (T=0) or 3000 (4 weeks 4° C., 25° C., 40° C.) seconds for 3 higher concentrations. The immobilized surface is regenerated for 6-8 seconds with 0.4% SDS at 30 ul/min, and then stabilized for 5 seconds. Binding kinetics are analyzed using the Biacore T200 Evaluation software (Version 3.0). Data are referenced to a blank flow cell, and the data are fit to a 1:1 binding model.

[6] = target: T3, biotinylated PD-1-Fc fusion protein (human, UniProt Q15116 25-170, limits assumed, biotinylated; site not stated); test: ELISA blocking: antibody mixed with biotinylated PD-1-Fc, plate coated with PD-L1-Fc (competitor)
T3 construct: also called human PD-1; not shown: Fc part; not described
T3 sequence (Q15116 25-170 limits assumed): as the sequence (B0LAJ3 entry or part of it limits assumed) above, with E2D, A10P, L19V, A35T, R75Q, A144T counted along it

[7] = target: T3, biotinylated PD-1-Fc fusion protein; test: ELISA blocking: antibody mixed with biotinylated PD-1-Fc, plate coated with PD-L2-Fc (competitor)
[8] = target: T2, human PD-1-Fc (R&D Systems); test: SPR (Biacore T200), human PD-1-Fc immobilized, antibody stored 4 weeks at 4° C. as analyte, 37° C.
Procedure: as §1

[9] = target: T2, human PD-1-Fc (R&D Systems); test: SPR (Biacore T200), human PD-1-Fc immobilized, antibody stored 4 weeks at 25° C. as analyte, 37° C.
Procedure: as §1

[10] = target: T2, human PD-1-Fc (R&D Systems); test: SPR (Biacore T200), human PD-1-Fc immobilized, antibody stored 4 weeks at 40° C. as analyte, 37° C.
Procedure: as §1

[11] = target: T4, human PD-1 (antigen of the avid KD measurement by MSD) (human, UniProt Q15116 25-167, limits assumed); test: MSD solution equilibrium titration, avid KD against human PD-1; avid KD, IgG1 format
T4 sequence (Q15116 25-167 limits assumed): as the sequence (Q15116 25-167 limits assumed) above
Procedure: (§2) Equilibrium affinity measurements are performed as previously described (Estep, P., et al., MAbs, 2013. 5(2): p. 270-8). […] Antibodies diluted at 20 nM in PBS are coated onto standard bind MSD-ECL plates overnight at 4° C. or at room temperature for 30 min. Plates are blocked with BSA for 30 min whilst shaking at 700 rpm. Plates are then washed 3× with wash buffer (PBSF+0.05% Tween 20). SET samples are applied and incubated on the plates for 150 s with shaking at 700 rpm followed by one wash. Antigen captured on a plate is detected with 250 ng/mL sulfotag-labeled streptavidin in PBSF by incubation on the plate for 3 min. The plates are washed three times with wash buffer and are then read on the MSD Sector Imager 2400 instrument using 1× Read Buffer T with surfactant. The percent free antigen is plotted as a function of titrated antibody in Prism and fit to a quadratic equation to extract the KD. To improve throughput, liquid handling robots are used throughout MSD-SET experiments, including for SET sample preparation.

hPD-1_HIS [12] = target: T5, hPD-1_HIS (human, UniProt Q15116 25-167, limits assumed); test: bio-layer interferometry, antibody on the sensor tip; reference nivolumab and pembrolizumab
T5 construct: not shown: His tag
T5 sequence (Q15116 25-167 limits assumed): as above

hPD-1_HIS [13] = target: T5, hPD-1_HIS; test: bio-layer interferometry (ForteBio), monovalent: hPD-1_HIS in solution, IgG on sensor tip
Procedure: Briefly, ForteBio affinity measurements are performed by loading IgGs online onto AHQ sensors. Sensors are equilibrated off-line in assay buffer for 30 min and then monitored on-line for 60 seconds for baseline establishment. Sensors with loaded IgGs are exposed to 100 nM antigen for 5 min, afterwards they are transferred to assay buffer for 5 min for off-rate measurement. Kinetics are analyzed using the 1:1 binding model.

b-PD-1 monomer [14] = target: T6, b-PD-1 monomer (human, UniProt Q15116 25-167, limits assumed, biotinylated (b-); site not stated); test: MSD solution equilibrium titration, monovalent KD against human PD-1; monovalent KD, IgG1 format
T6 construct: also called human PD-1; antigen of the MSD assay
T6 sequence (Q15116 25-167 limits assumed): as above
Procedure: as §2

[15] = target: T4, human PD-1 (antigen of the avid KD …); test: MSD solution equilibrium titration, avid KD against human PD-1
Procedure: as §2

b-PD-1 monomer [16] = target: T6, b-PD-1 monomer; test: MSD solution equilibrium titration, monovalent KD against human PD-1
Procedure: as §2

hPD-1_Fc [17] = target: T7, hPD-1_Fc (human, UniProt Q15116 25-167, limits assumed); test: bio-layer interferometry, PD-1_Fc on the sensor tip; reference nivolumab and pembrolizumab
T7 construct: also called human PD-1_Fc; not shown: Fc part
T7 sequence (Q15116 25-167 limits assumed): as above

hPD-1_Fc [18] = target: T7, hPD-1_Fc; test: bio-layer interferometry (ForteBio), monovalent: Fab in solution, hPD-1_Fc on sensor tip

T1 sequence (Q15116 25-288 limits assumed): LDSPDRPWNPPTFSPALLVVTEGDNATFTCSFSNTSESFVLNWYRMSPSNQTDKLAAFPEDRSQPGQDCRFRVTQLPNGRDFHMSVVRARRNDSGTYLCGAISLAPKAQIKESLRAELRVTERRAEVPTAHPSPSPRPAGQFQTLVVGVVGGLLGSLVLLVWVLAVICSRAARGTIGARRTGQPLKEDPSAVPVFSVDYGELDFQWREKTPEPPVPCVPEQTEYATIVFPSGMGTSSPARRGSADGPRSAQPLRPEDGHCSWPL
Chain of cynoPD-1_Fc (B0LAJ3 entry or part of it limits assumed): as the sequence (B0LAJ3 entry or part of it limits assumed) above

## Fab of Nivolumab in IgG1 format
cynoPD-1_Fc
  Kd: 1.2 nM

## control IgG (antibody)
Human PD-1 on cells [1]
  MFI (PD-L2-FITC): 183000 MFI

## Fab of Pembrolizumab in IgG1 format
cynoPD-1_Fc (cyno)
  Kd: 0.47 nM

B1: Antibody G (S228P IgG4) (antibody, V domains shown)
VH: QVQLVQSGAEVKKPGSSVRVSCKASGGTLSSYAISWVRQAPGQGLEWMGLIIPMFGAAGYAQRFQGRVTITADESASTAYMELSSLRSEDTAVYYCARAEHSSTGTFDYWGQGTLVTVSS
VL: DIQMTQSPSSVSASVGDRVTITCRASQGISSWLAWYQQKPGKAPKLLISAASSLQSGVPSRFSGSGSGTDFTLTISSLQPEDFATYYCQQANHLPFTFGGGTKVEIKR
Human PD-1 on cells [2]
  IL-2 secretion fold change vs. IgG control, 0.01 nM IgG (mixed lymphocyte reaction): 1.36 fold
  IL-2 secretion fold change vs. IgG control, 0.1 nM IgG (mixed lymphocyte reaction): 1.91 fold
  IL-2 secretion fold change vs. IgG control, 1 nM IgG (mixed lymphocyte reaction): 3.12 fold
  IL-2 secretion fold change vs. IgG control, 10 nM IgG (mixed lymphocyte reaction): 2.62 fold
  IL-2 secretion fold change vs. IgG control, 100 nM IgG (mixed lymphocyte reaction): 2.45 fold
Human PD-1 on cells [3]
  IFN-γ secretion fold change vs. IgG control, 0.01 nM IgG (mixed lymphocyte reaction): 1.17 fold
  IFN-γ secretion fold change vs. IgG control, 0.1 nM IgG (mixed lymphocyte reaction): 1.91 fold
  IFN-γ secretion fold change vs. IgG control, 1 nM IgG (mixed lymphocyte reaction): 2.48 fold
  IFN-γ secretion fold change vs. IgG control, 10 nM IgG (mixed lymphocyte reaction): 2.04 fold
  IFN-γ secretion fold change vs. IgG control, 100 nM IgG (mixed lymphocyte reaction): 2.07 fold
Human PD-1 on cells [4]
  EC50: 1.76 nM

B2: Antibody D (S228P IgG4) (antibody, V domains shown)
VH: QVQLVQSGAEVKKPGSSVKVSCKASGGTFSSYAISWVRQAPGQGLEWMGLIIPMFDTAGYAQKFQGRVAITVDESTSTAYMELSSLRSEDTAVYYCARAEHSSTGTFDYWGQGTLVTVSS
VL: DIQMTQSPSSVSASVGDRVTITCRASQGISSWLAWYQQKPGKAPKLLISAASSLQSGVPSRFSGSGSGTDFTLTISSLQPEDFATYYCQQANHLPFTFGGGTKVEIKR
Human PD-1 on cells [2]
  IL-2 secretion fold change vs. IgG control, 0.01 nM IgG (mixed lymphocyte reaction): 1.25 fold
  IL-2 secretion fold change vs. IgG control, 0.1 nM IgG (mixed lymphocyte reaction): 1.64 fold
  IL-2 secretion fold change vs. IgG control, 1 nM IgG (mixed lymphocyte reaction): 2.45 fold
  IL-2 secretion fold change vs. IgG control, 10 nM IgG (mixed lymphocyte reaction): 2.63 fold
  IL-2 secretion fold change vs. IgG control, 100 nM IgG (mixed lymphocyte reaction): 3.08 fold
Human PD-1 on cells [3]
  IFN-γ secretion fold change vs. IgG control, 0.01 nM IgG (mixed lymphocyte reaction): 1.32 fold
  IFN-γ secretion fold change vs. IgG control, 0.1 nM IgG (mixed lymphocyte reaction): 1.94 fold
  IFN-γ secretion fold change vs. IgG control, 1 nM IgG (mixed lymphocyte reaction): 2.26 fold
  IFN-γ secretion fold change vs. IgG control, 10 nM IgG (mixed lymphocyte reaction): 1.99 fold
  IFN-γ secretion fold change vs. IgG control, 100 nM IgG (mixed lymphocyte reaction): 1.72 fold
Human PD-1 on cells [4]
  EC50: 0.978 nM
[5]
  Kd: 0.104 nM
  koff: 2.98e-05 s⁻¹
  kon: 286000 M⁻¹ s⁻¹
[6]
  IC50: 0.3 nM
[7]
  IC50: 0.34 nM
[8]
  Kd: 0.103 nM
  koff: 3.86e-05 s⁻¹
  kon: 377000 M⁻¹ s⁻¹
[9]
  Kd: 0.102 nM
  koff: 3.6e-05 s⁻¹
  kon: 354000 M⁻¹ s⁻¹
[10]
  Kd: 0.118 nM
  koff: 4.22e-05 s⁻¹
  kon: 358000 M⁻¹ s⁻¹

B3: Antibody D in IgG1 format (antibody, V domains shown)
VH: QVQLVQSGAEVKKPGSSVKVSCKASGGTFSSYAISWVRQAPGQGLEWMGLIIPMFDTAGYAQKFQGRVAITVDESTSTAYMELSSLRSEDTAVYYCARAEHSSTGTFDYWGQGTLVTVSS
VL: DIQMTQSPSSVSASVGDRVTITCRASQGISSWLAWYQQKPGKAPKLLISAASSLQSGVPSRFSGSGSGTDFTLTISSLQPEDFATYYCQQANHLPFTFGGGTKVEIK
notes: IgG1 format, expressed in yeast; also called Antibody D in an IgG1 format and expressed in yeast
[11]
  Kd: 0.0009 nM
hPD-1_HIS [12]
  fold lower KD than nivolumab and pembrolizumab: 6 fold
hPD-1_HIS [13]
  Kd: 0.31 nM
b-PD-1 monomer [14]
  Kd: 0.012 nM

B4: Antibody G in IgG1 format (antibody, V domains shown)
VH: QVQLVQSGAEVKKPGSSVRVSCKASGGTLSSYAISWVRQAPGQGLEWMGLIIPMFGAAGYAQRFQGRVTITADESASTAYMELSSLRSEDTAVYYCARAEHSSTGTFDYWGQGTLVTVSS
VL: DIQMTQSPSSVSASVGDRVTITCRASQGISSWLAWYQQKPGKAPKLLISAASSLQSGVPSRFSGSGSGTDFTLTISSLQPEDFATYYCQQANHLPFTFGGGTKVEIK
notes: IgG1 format, expressed in yeast; also called Antibody G in an IgG1 format and expressed in yeast
[15]
  Kd: 0.001 nM
b-PD-1 monomer [16]
  Kd: 0.014 nM
hPD-1_HIS [12]
  fold lower KD than nivolumab and pembrolizumab: 4 fold
hPD-1_HIS [13]
  Kd: 0.44 nM

B5: Fab of Antibody D in IgG1 format (Fab, V domains shown)
VH: QVQLVQSGAEVKKPGSSVKVSCKASGGTFSSYAISWVRQAPGQGLEWMGLIIPMFDTAGYAQKFQGRVAITVDESTSTAYMELSSLRSEDTAVYYCARAEHSSTGTFDYWGQGTLVTVSS
VL: DIQMTQSPSSVSASVGDRVTITCRASQGISSWLAWYQQKPGKAPKLLISAASSLQSGVPSRFSGSGSGTDFTLTISSLQPEDFATYYCQQANHLPFTFGGGTKVEIK
notes: also called Fab in solution (row Antibody D in IgG1 format)
hPD-1_Fc [17]
  fold lower KD than nivolumab and pembrolizumab: 3 fold
hPD-1_Fc [18]
  Kd: 0.56 nM
cynoPD-1_Fc
  Kd: 0.67 nM

B6: Fab of Antibody G in IgG1 format (Fab, V domains shown)
VH: QVQLVQSGAEVKKPGSSVRVSCKASGGTLSSYAISWVRQAPGQGLEWMGLIIPMFGAAGYAQRFQGRVTITADESASTAYMELSSLRSEDTAVYYCARAEHSSTGTFDYWGQGTLVTVSS
VL: DIQMTQSPSSVSASVGDRVTITCRASQGISSWLAWYQQKPGKAPKLLISAASSLQSGVPSRFSGSGSGTDFTLTISSLQPEDFATYYCQQANHLPFTFGGGTKVEIK
notes: also called Fab in solution (row Antibody G in IgG1 format)
hPD-1_Fc [17]
  fold lower KD than nivolumab and pembrolizumab: 4 fold
hPD-1_Fc [18]
  Kd: 0.49 nM
cynoPD-1_Fc
  Kd: 0.59 nM
